# Laboratory results from patent US20090291081A1.
# B1: ABT2-108-538x/ABT1-98 scFc (Fc fusion, part only; not given: Domain junction linker and Fc, not shown: a dimerising Fc or GST)
# chain, part: EVQLLESGGGLVQPGGSLRLSCAASGFTFADEGMMWVRQAPGKGLEWVSRITYSGKNTYYADSVKGRFTISRDNSKNTLYLQMNSLRAEDTAVYYCAKYTGRILGHHLFDYWGQGTLVTVSSEVQLLESGGGLVQPGGSLRLSCAASGFTFDGYIMSWVRQAPGKGLEWVSTISPLGSVTYYADSVKGRFTISRDNSKNTLYLQMNSLRAEDTAVYYCAKKGPWFDYWGQGTLVTVSSGGGGSGGGGSGGGGS
# B2: ABT1-98/ABT2-108-538x scFc (Fc fusion, part only; not given: Domain junction linker and Fc, not shown: a dimerising Fc or GST)
# chain, part: EVQLLESGGGLVQPGGSLRLSCAASGFTFDGYIMSWVRQAPGKGLEWVSTISPLGSVTYYADSVKGRFTISRDNSKNTLYLQMNSLRAEDTAVYYCAKKGPWFDYWGQGTLVTVSSEVQLLESGGGLVQPGGSLRLSCAASGFTFADEGMMWVRQAPGKGLEWVSRITYSGKNTYYADSVKGRFTISRDNSKNTLYLQMNSLRAEDTAVYYCAKYTGRILGHHLFDYWGQGTLVTVSSGGGGSGGGGSGGGGS
# B3: ABT1-207/ABT2-108-538x scFc (Fc fusion, part only; not given: Domain junction linker and Fc, not shown: a dimerising Fc or GST)
# chain, part: EVQLLESGGGLIQPGGSLRLSCAASGFTFGRYYMSWVRQAPGKGLEWVSSIDYLGTNTYYADSVKGRFTISRDNSKNTLYLQMNSLRAEDTAVYYCAKLTRIRPPNFDYWGQGTLVTVSSEVQLLESGGGLVQPGGSLRLSCAASGFTFADEGMMWVRQAPGKGLEWVSRITYSGKNTYYADSVKGRFTISRDNSKNTLYLQMNSLRAEDTAVYYCAKYTGRILGHHLFDYWGQGTLVTVSSGGGGSGGGGSGGGGS
# B4: ABT2-108-538x/ABT1-207 scFc (Fc fusion, part only; not given: Domain junction linker and Fc, not shown: a dimerising Fc or GST)
# chain, part: EVQLLESGGGLVQPGGSLRLSCAASGFTFADEGMMWVRQAPGKGLEWVSRITYSGKNTYYADSVKGRFTISRDNSKNTLYLQMNSLRAEDTAVYYCAKYTGRILGHHLFDYWGQGTLVTVSSEVQLLESGGGLIQPGGSLRLSCAASGFTFGRYYMSWVRQAPGKGLEWVSSIDYLGTNTYYADSVKGRFTISRDNSKNTLYLQMNSLRAEDTAVYYCAKLTRIRPPNFDYWGQGTLVTVSSGGGGSGGGGSGGGGS
# Target: human IL-1β (human) (UniProt P01584)
# Sequence (P01584 117-269 limits assumed): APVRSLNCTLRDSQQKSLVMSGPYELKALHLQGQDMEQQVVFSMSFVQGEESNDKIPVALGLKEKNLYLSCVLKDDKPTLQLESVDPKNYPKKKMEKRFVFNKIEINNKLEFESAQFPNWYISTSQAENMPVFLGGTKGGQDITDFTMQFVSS
# Assay: cell-based or functional assay
row,Binder,"Estimated EC50, IL-1β neutralization (MRC-5) [nM]"
1,B1,< 0.001
2,B2,1.3
3,B3,1.1
4,B4,0.002

# Target: human IL-1α (human) (UniProt P01583)
# Sequence (P01583 113-271 limits assumed): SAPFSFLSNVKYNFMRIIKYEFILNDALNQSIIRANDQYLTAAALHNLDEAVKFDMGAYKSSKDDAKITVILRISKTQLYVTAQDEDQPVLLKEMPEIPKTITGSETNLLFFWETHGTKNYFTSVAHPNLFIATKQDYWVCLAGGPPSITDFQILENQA
# Assay: cell-based or functional assay
row,Binder,"Estimated EC50, IL-1α neutralization (MRC-5) [nM]"
1,B1,3
2,B2,30
3,B3,25
4,B4,50
